What was measured:
[1] = target: T1, Ec-MscL (mechanosensitive channel of large conductance) (Escherichia coli, UniProt P0A742); test: MicroScale Thermophoresis; supported by patch clamp activation at […] DHS and MTS-PEG5000 competition on cysteine mutants; assay type: binding
T1 construct: wild type, recombinant, detergent-solubilized channel

[2] = target: T2, Ec-MscL (mechanosensitive channel of large conductance) (Escherichia coli, UniProt P0A742, K55T); test: MicroScale Thermophoresis, labeled purified protein in DDM (main text prints […]); assay type: binding
T2 construct: recombinant, detergent-solubilized channel

[3] = target: the molecule itself; test: non-reducing SDS-PAGE with Western blot (dimer band); purified His-tagged cysteine mutants, 5 ug in 50 mM KPi pH 7.5, 150 mM NaCl, 4 mM DM, 22°C; nonreducing sample buffer with iodoacetamide; blot with Penta.His; samples of the MTS-PEG5000 versus DHS competition experiment, mock lanes included

T1 sequence (P0A742 whole entry): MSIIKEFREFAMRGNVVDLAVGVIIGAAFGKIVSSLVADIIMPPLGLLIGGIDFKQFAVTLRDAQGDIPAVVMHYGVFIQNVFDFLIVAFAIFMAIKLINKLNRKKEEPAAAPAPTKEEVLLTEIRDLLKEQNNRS
T2 sequence (P0A742 whole entry K55T): as the sequence (P0A742 whole entry) above, with K55T counted along it

With `CN[C@@H]1[C@H](O[C@H]2[C@H](O[C@H]3[C@H](O)[C@@H](O)[C@H](NC(=N)N)[C@@H](O)[C@@H]3NC(=N)N)O[C@@H](C)[C@]2(O)CO)O[C@@H](CO)[C@H](O)[C@H]1O` [DHS, dihydrostreptomycin] the Kd [1] was 9.81 ± 0.13 mM and the Kd [2] was 601 ± 55.1 µM.

B1: A114C Ec-MscL (Escherichia coli mechanosensitive channel of large conductance, cysteine mutant) (natural protein, UniProt P0A742 1-136, looked up)
chain: MSIIKEFREFAMRGNVVDLAVGVIIGAAFGKIVSSLVADIIMPPLGLLIGGIDFKQFAVTLRDAQGDIPAVVMHYGVFIQNVFDFLIVAFAIFMAIKLINKLNRKKEEPAAAPCPTKEEVLLTEIRDLLKEQNNRS
notes: MscL, mechanosensitive channel of large conductance, Escherichia coli (Ec-MscL); single cysteine mutant; source: E. coli PB104 (pB10) or PB116 (pET21a), purified (Talon resin, in DM); not shown: His6, C-terminal, kept
B1: binds [3].

B2: T116C Ec-MscL (Escherichia coli mechanosensitive channel of large conductance, cysteine mutant) (natural protein, UniProt P0A742 1-136, looked up)
chain: MSIIKEFREFAMRGNVVDLAVGVIIGAAFGKIVSSLVADIIMPPLGLLIGGIDFKQFAVTLRDAQGDIPAVVMHYGVFIQNVFDFLIVAFAIFMAIKLINKLNRKKEEPAAAPAPCKEEVLLTEIRDLLKEQNNRS
notes: as for B1
B2: binds [3].

B3: K117C Ec-MscL (Escherichia coli mechanosensitive channel of large conductance, cysteine mutant) (natural protein, UniProt P0A742 1-136, looked up)
chain: MSIIKEFREFAMRGNVVDLAVGVIIGAAFGKIVSSLVADIIMPPLGLLIGGIDFKQFAVTLRDAQGDIPAVVMHYGVFIQNVFDFLIVAFAIFMAIKLINKLNRKKEEPAAAPAPTCEEVLLTEIRDLLKEQNNRS
notes: as for B1
B3: binds [3].

— paper PMC4900634 (PLoS Biology, 2016)
